The text below walks through data of patent WO2024096022A1 (dated 2024).

Assay [1] has as its target T1, human AdipoR2 protein (human, UniProt Q86V24 1-386).
T1 construct: Stably expressed on CHO cells together with EGFP as a separate expression marker; also called adiponectin receptor 2; hAdipoR2
T1 sequence: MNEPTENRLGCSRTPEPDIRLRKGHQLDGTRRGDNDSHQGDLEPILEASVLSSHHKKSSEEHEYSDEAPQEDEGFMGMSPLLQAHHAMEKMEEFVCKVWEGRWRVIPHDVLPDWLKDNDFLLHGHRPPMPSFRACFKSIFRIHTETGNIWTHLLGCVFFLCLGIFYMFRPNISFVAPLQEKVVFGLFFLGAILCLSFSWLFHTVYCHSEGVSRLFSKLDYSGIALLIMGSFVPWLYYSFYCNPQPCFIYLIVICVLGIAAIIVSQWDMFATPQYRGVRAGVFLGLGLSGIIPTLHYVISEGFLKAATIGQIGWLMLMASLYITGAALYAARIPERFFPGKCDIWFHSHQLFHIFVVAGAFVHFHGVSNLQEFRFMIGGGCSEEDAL
As to the kind of experiment: flow cytometry on human AdipoR2-expressing CHO cells against parental CHO cells.

The target of assay [2] is T2, human AdipoR1 protein (human, UniProt Q96A54 1-375).
T2 construct: Stably expressed on CHO cells together with EGFP as a separate expression marker; also called adiponectin receptor 1; hAdipoR1
T2 sequence: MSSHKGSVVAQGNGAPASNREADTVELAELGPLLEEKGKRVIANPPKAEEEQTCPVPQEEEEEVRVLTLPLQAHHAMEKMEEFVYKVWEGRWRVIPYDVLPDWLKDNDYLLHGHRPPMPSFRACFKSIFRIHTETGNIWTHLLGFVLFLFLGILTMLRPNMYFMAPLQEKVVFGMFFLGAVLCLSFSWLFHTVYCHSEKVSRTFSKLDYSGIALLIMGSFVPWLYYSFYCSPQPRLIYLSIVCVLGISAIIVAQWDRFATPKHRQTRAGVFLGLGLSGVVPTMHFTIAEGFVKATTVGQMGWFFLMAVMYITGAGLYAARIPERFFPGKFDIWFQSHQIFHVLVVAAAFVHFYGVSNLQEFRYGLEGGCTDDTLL
As to the kind of experiment: flow cytometry on human AdipoR1-expressing CHO cells against parental CHO cells.

Assay [3] deals with T1, human AdipoR2 protein. Nature of the assay: fluorescent ligand binding to cells stably expressing human AdipoR2 (8200 Cellular Detection System).

B1: mouse-human chimeric antibody WT (antibody, V domains shown)
VH: DVKLVESGEGLVKPGGSLKLSCAASGFTFSSYAMSWVRQTPEKRLEWVAYISSGGDYIYYADTVKGRFTISRDNARNTLYLQMSSLKSEDTAMYYCTRALEAMDYWGQGTSVTVSS
VL: ETTVTQSPASLSMAIGEKVTIRCITSTDIDDDMNWYQQKPGEPPKLLISEGNTLRPGVPSRFSSSGYGTDFVFTIENMLSEDVADYYCLQSDNLPFTFGSGTKLEIK
On to B1, for which the binding result in assay [1] and in assay [2] was “binds” throughout.

B2: fluorescently labeled human plasma-derived adiponectin (ligand, UniProt Q15848 19-244, looked up)
chain: ETTTQGPGVLLPLPKGACTGWMAGIPGHPGHNGAPGRDGRDGTPGEKGEKGDPGLIGPKGDIGETGVPGAEGPRGFPGIQGRKGEPGEGAYVYRSAFSVGLETYVTIPNMPIRFTKIFYNQQNHYDGSTGKFHCNIPGLYYFAYHITVYMKDVKVSLFKKDKAMLFTYDQYQENNVDQASGSVLLHLEVGDQVWLQVYGEGERNGLYADNDNDSTFTGFLLYHDTN
modifications: fluorescent label (site not stated)
For the molecule B2, the binding result in assay [3] is “binds”.
